Source: patent publication US20180044374A1
Several values for one entry are separate records, joined by “and”; a condition that tells them apart may be missing. Identical values can stand only once.

Key:
[1] = molecular target: human polyclonal IgG (Gammanorm) (human); assay: dynamic binding capacity; matrix A63a, ligand 6.6 mg/ml
[2] = molecular target: human polyclonal IgG (Gammanorm) (human); assay: dynamic binding capacity; matrix A20, ligand 7.3 mg/ml
[3] = molecular target: human polyclonal IgG (Gammanorm) (human); assay: dynamic binding capacity; matrix A18, ligand 8.2 mg/ml
[4] = molecular target: human polyclonal IgG (Gammanorm) (human); assay: dynamic binding capacity; matrix A65a, ligand 6.6 mg/ml
[5] = molecular target: human polyclonal IgG (Gammanorm) (human); assay: dynamic binding capacity; matrix I1, ligand 11.2 mg/ml
[6] = molecular target: human polyclonal IgG (Gammanorm) (human); assay: dynamic binding capacity; matrix A41, ligand 5.0 mg/ml
[7] = molecular target: human polyclonal IgG (Gammanorm) (human); assay: dynamic binding capacity; matrix A43, ligand 10.51 mg/ml
[8] = molecular target: human polyclonal IgG (Gammanorm) (human); assay: dynamic binding capacity; matrix A38, ligand 7.45 mg/ml
[9] = molecular target: human polyclonal IgG (Gammanorm) (human); assay: dynamic binding capacity; matrix C2, ligand 10.5 mg/ml
[10] = molecular target: human polyclonal IgG (Gammanorm) (human); assay: dynamic binding capacity; matrix A18, ligand 13.4 mg/ml
[11] = molecular target: human polyclonal IgG (Gammanorm) (human); assay: dynamic binding capacity; matrix A38, ligand 11.34 mg/ml
[12] = molecular target: human polyclonal IgG (Gammanorm) (human); assay: dynamic binding capacity; matrix A62a, ligand 14.8 mg/ml
[13] = molecular target: human polyclonal IgG (Gammanorm) (human); assay: dynamic binding capacity; matrix C3, ligand 9.0 mg/ml
[14] = molecular target: human polyclonal IgG (Gammanorm) (human); assay: dynamic binding capacity; matrix C4, ligand 10.1 mg/ml
[15] = molecular target: human polyclonal IgG (Gammanorm) (human); assay: dynamic binding capacity; matrix A43, ligand 6.99 mg/ml
[16] = molecular target: human polyclonal IgG (Gammanorm) (human); assay: dynamic binding capacity; matrix A28, ligand 7.9 mg/ml
[17] = molecular target: human polyclonal IgG (Gammanorm) (human); assay: dynamic binding capacity; matrix A62b, ligand […]; details: ligand content 5.2 mg/ml
[18] = molecular target: human polyclonal IgG (Gammanorm) (human); assay: dynamic binding capacity; matrix A41, ligand 8.83 mg/ml
[19] = molecular target: human polyclonal IgG (Gammanorm) (human); assay: dynamic binding capacity; ligand 12 mg/ml, before 1 M NaOH
[20] = molecular target: human polyclonal IgG (Gammanorm) (human); assay: dynamic binding capacity; matrix C4, ligand […]
[21] = molecular target: human polyclonal IgG (Gammanorm) (human); assay: dynamic binding capacity; matrix C1, ligand 10.8 mg/ml
[22] = molecular target: human polyclonal IgG (Gammanorm) (human); assay: dynamic binding capacity; ligand 20 mg/ml, before 1 M NaOH
[23] = molecular target: human polyclonal IgG (Gammanorm) (human); assay: dynamic binding capacity; matrix C3, ligand […]; details: ligand content 5.9 mg/ml
[24] = molecular target: human polyclonal IgG (Gammanorm) (human); assay: dynamic binding capacity; matrix B5, ligand 9.6 mg/ml
[25] = molecular target: human polyclonal IgG (Gammanorm) (human); assay: dynamic binding capacity; matrix A63a, ligand 14.0 mg/ml
[26] = molecular target: human polyclonal IgG (Gammanorm) (human); assay: dynamic binding capacity; matrix A40, ligand 13.2 mg/ml
[27] = molecular target: human polyclonal IgG (Gammanorm) (human); assay: dynamic binding capacity; matrix A65a, ligand 13.1 mg/ml
[28] = molecular target: human polyclonal IgG (Gammanorm) (human); assay: dynamic binding capacity; matrix A38, ligand 11.3 mg/ml
[29] = molecular target: human polyclonal IgG (Gammanorm) (human); assay: dynamic binding capacity; matrix A40, ligand 11.0 mg/ml
[30] = molecular target: human polyclonal IgG (Gammanorm) (human); assay: dynamic binding capacity; matrix H40, ligand […]
[31] = molecular target: human polyclonal IgG (Gammanorm) (human); assay: dynamic binding capacity; matrix B5, ligand 6.3 mg/ml
[32] = molecular target: human polyclonal IgG (Gammanorm) (human); assay: dynamic binding capacity; ligand 13 mg/ml, before 1 M NaOH
[33] = molecular target: human polyclonal IgG (Gammanorm) (human); assay: dynamic binding capacity; matrix A27, ligand 7.5 mg/ml
[34] = molecular target: human polyclonal IgG (Gammanorm) (human); assay: dynamic binding capacity; matrix A40, ligand 6.1 mg/ml
[35] = molecular target: human polyclonal IgG (Gammanorm) (human); assay: dynamic binding capacity; matrix A29, ligand 7.3 mg/ml
[36] = molecular target: human polyclonal IgG (Gammanorm) (human); assay: dynamic binding capacity; matrix A62a, ligand 7.5 mg/ml
[37] = molecular target: human polyclonal IgG (Gammanorm) (human); assay: dynamic binding capacity; matrix A62a, ligand 6.4 mg/ml
[38] = molecular target: human polyclonal IgG (Gammanorm) (human); assay: dynamic binding capacity; matrix A40, ligand 13.15 mg/ml

With “Zvar(Q9A, N11E, Q40V, A42K, N43A, L44I)4 (designed binder)” the Qb10% 2.4 min [1] was 40 mg/mL, the Qb10% 6 min [1] was 44 mg/mL and the Qb10% 2.4 min [2] was 45 mg/mL and 45.1 mg/mL. For the same substance, the Qb10% 6 min [2] was 57 mg/mL and 57.2 mg/mL, the Qb10% 2.4 min [3] was 52 mg/mL and the Qb10% 6 min [3] was 59 mg/mL. The Qb10% 2.4 min [4] was 42 mg/mL, the Qb10% 6 min [4] was 47 mg/mL and the Qb10% 2.4 min [5] was 57 mg/mL. The Qb10% 6 min [5] was 68 mg/mL, the Qb10% 2.4 min [6] was 35.6 mg/mL and the Qb10% 6 min [6] was 46 mg/mL. For the same substance, the Qb10% 2.4 min [7] was 31.8 mg/mL, the Qb10% 6 min [7] was 58 mg/mL and the Qb10% 2.4 min [8] was 44.4 mg/mL. The Qb10% 6 min [8] was 58.2 mg/mL, the Qb10% 2.4 min [9] was 42 mg/mL and the Qb10% 6 min [9] was 57 mg/mL. For the same substance, the Qb10% 6 min [10] was 63 mg/mL, the Qb10% 2.4 min [11] was 48.1 mg/mL and the Qb10% 6 min [11] was 72.8 mg/mL. It also gave a Qb10% 2.4 min [12] of 55 mg/mL, a Qb10% 6 min [12] of 62 mg/mL and a Qb10% 2.4 min [13] of 49 mg/mL. For the same substance, the Qb10% 6 min [13] was 62 mg/mL, the Qb10% 2.4 min [14] was 55 mg/mL and the Qb10% 6 min [14] was 63 mg/mL. For the same substance, the Qb10% 2.4 min [15] was 33.4 mg/mL, the Qb10% 6 min [15] was 49.8 mg/mL and the Qb10% 2.4 min [16] was 42.4 mg/mL and 42 mg/mL. The Qb10% 6 min [16] was 58.2 mg/mL and 58 mg/mL, the Qb10% 2.4 min [17] was 40 mg/mL and the Qb10% 2.4 min [18] was 38.5 mg/mL and 37.8 mg/mL and 35.1 mg/mL. For the same substance, the Qb10% 6 min [18] was 56.8 mg/mL and 58.6 mg/mL and 57.2 mg/mL, the Qb10%, 6 min, before incubation [19] was 78 mg/mL and the Qb10% 2.4 min [20] was 59 mg/mL. The Qb10% 6 min [20] was 67 mg/mL, the Qb10% 2.4 min [21] was 43 mg/mL and the Qb10% 6 min [21] was 60 mg/mL. The Qb10%, 6 min, before incubation [22] was 73 mg/mL, the Qb10% 2.4 min [23] was 44 mg/mL and the Qb10% 6 min [23] was 52 mg/mL. The Qb10% 2.4 min [24] was 45 mg/mL, the Qb10% 6 min [24] was 47 mg/mL and the Qb10% 2.4 min [25] was 48 mg/mL. It also gave a Qb10% 6 min [25] of 56 mg/mL, a Qb10% 2.4 min [26] of 57 mg/mL and a Qb10% 6 min [26] of 71 mg/mL. The Qb10% 2.4 min [27] was 56 mg/mL, the Qb10% 6 min [27] was 64 mg/mL and the Qb10% 2.4 min [28] was 48 mg/mL. For the same substance, the Qb10% 6 min [28] was 73 mg/mL, the Qb10% 2.4 min [29] was 55 mg/mL and the Qb10% 6 min [29] was 74 mg/mL. For the same substance, the Qb10% 2.4 min [30] was 47 mg/mL, the Qb10% 6 min [30] was 52 mg/mL and the Qb10% 2.4 min [31] was 32 mg/mL. For the same substance, the Qb10% 6 min [31] was 38 mg/mL, the Qb10%, 6 min, before incubation [32] was 79 mg/mL and the Qb10% 2.4 min [33] was 29.2 mg/mL. For the same substance, the Qb10% 6 min [33] was 48.7 mg/mL, the Qb10% 2.4 min [34] was 49 mg/mL and the Qb10% 6 min [34] was 59 mg/mL. It also gave a Qb10% 2.4 min [35] of 36.3 mg/mL, a Qb10% 6 min [35] of 51.8 mg/mL and a Qb10% 2.4 min [36] of 47 mg/mL. For the same substance, the Qb10% 6 min [36] was 56 mg/mL, the Qb10% 2.4 min [37] was 43 mg/mL and the Qb10% 6 min [37] was 45 mg/mL. The Qb10% 2.4 min [38] was 56.9 mg/mL and the Qb10% 6 min [38] was 71.1 mg/mL.
